From paper PMC9010765 come the findings set out here.

In assay [1] the target is human myeloperoxidase (human) (UniProt P05164). Kind of assay: SPR; BIAcore 3000; MPO immobilised on a CM5 chip through primary amino groups; lipid-poor apoA-I 0.5 nM to 3 uM flowed over at 20 ul/min in 10 mM PBS pH 7.4; 1:1 binding with drifting baseline model; apparent KD. For orientation: In SPR one partner is held on a chip, and binding of the other changes the refractive index at the surface.

Assay [2] deals with human myeloperoxidase (human). In words: SPR; BIAcore 3000; MPO immobilised on a CM5 chip through primary amino groups; apoA-I 0.5 nM to ~3000 nM flowed over at 20 uL/min in 10 mM PBS, pH 7.4; fit to 1:1 binding with a drifting baseline; apparent KD.
human myeloperoxidase (human), sequence (P05164 165-745): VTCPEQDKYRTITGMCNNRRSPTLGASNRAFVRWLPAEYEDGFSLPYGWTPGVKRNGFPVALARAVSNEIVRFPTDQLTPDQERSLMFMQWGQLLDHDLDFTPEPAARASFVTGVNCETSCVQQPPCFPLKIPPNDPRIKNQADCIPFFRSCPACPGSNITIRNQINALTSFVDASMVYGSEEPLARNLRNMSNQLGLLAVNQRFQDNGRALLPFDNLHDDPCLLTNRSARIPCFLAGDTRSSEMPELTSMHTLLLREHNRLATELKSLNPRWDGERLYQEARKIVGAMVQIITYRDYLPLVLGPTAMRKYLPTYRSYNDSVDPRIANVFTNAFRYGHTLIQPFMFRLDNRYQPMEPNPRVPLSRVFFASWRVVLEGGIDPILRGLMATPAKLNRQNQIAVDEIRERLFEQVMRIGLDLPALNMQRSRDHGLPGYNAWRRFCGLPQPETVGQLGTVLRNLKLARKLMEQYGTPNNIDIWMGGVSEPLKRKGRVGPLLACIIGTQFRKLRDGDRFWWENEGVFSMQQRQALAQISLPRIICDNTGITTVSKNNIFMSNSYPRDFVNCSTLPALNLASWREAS

Turning to “recombinant human apolipoprotein A-I, lipid-poor (from UniProt P02647 19-267) (natural protein)”, in assay [1], the Kd was 75 nM. Moreover, in assay [2], the Kd came out at 75.1 nM; the koff (as a rule, a measure of how fast the partners let go of each other) was 0.00377 s⁻¹; the kon (commonly a measure of how fast the partners come together) was 50200 M⁻¹ s⁻¹.
